This is an account of results in the supplement of paper PMC10567573.

Sequences and labels used below:
B1: KCNA4 (parent)
chain: YQSGGRLKRPVNVPFDIFTEEVKF
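Further: lentivirally expressed fusions sorted by FACS into six bins by GFP to DsRed ratio, PSI derived from sequencing read proportions per bin multiplied by bin number.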

The variants in the data set derive from B1. The experiment in a line: protein stability index of a GFP-peptide fusion (GPS, HEK-293T) (PSI 1-6); higher = more stable. The note with it: c terminus: a fixed tail appended.
Turning to YQSGGRLKRPVNVPFDIQTEEVKF [F18Q], the protein stability index stood at 2.65.

For YQSGGRLKRPVNVPFDIHTEEVKF [F18H], the protein stability index amounted to 2.15.

Take YQSGGRLKRPVNVPFDILTEEVKF [F18L]: the protein stability index came out at 2.5. Then YQSGGRLKRPVNVPFDIGTEEVKF [F18G], with 2.29; and YQSGGRLKRPVNVPFDIKTEEVKF [F18K], with 1.84; and YQSGGRLKRPVNVPFDIRTEEVKF [F18R], with 1.93. Take YQSGGRLKRPVNVPFDINTEEVKF [F18N]: the protein stability index was determined as 2.1. Then YQSGGRLKRPVNVPFDITTEEVKF [F18T], with 2.26; and YQSGGRLKRPVNVPFDIMTEEVKF [F18M], with 2.02; and YQSGGRLKRPVNVPHDIFTEEVKF [F15H], with 2.47. Then YQSGGRLKRPVNVPGDIFTEEVKF [F15G], with 1.98; and YQSGGRLKRPVNVPWDIFTEEVKF [F15W], with 2.12; and YQSGGRLKRPVNVPEDIFTEEVKF [F15E], with 2.75. Take YQSGGRLKRPVNVPDDIFTEEVKF [F15D]: the protein stability index came to 2.6. Regarding YQSGGRLKRPVNVPRDIFTEEVKF [F15R], the protein stability index came to 2.83.

As to YQSGGRLKRPVNVPLDIFTEEVKF [F15L], the protein stability index came to 2.15. Then YQSGGRLKRPVNVPFDIFTHEVKF [E20H], with 1.43; and YQSGGRLKRPVNVPFDIFTKEVKF [E20K], with 1.7. The figure for YQSGGRLKRPVNVPFDIFTDEVKF [E20D] is 2.57. Then YQSGGRLKRPVNVPFDIFTIEVKF [E20I], with 1.47; and YQSGGRLKRPVNVPFDIFTPEVKF [E20P], with 2.11; and YQSGGRLKRPVNVPFDIFTQEVKF [E20Q], with 1.44. YQSGGRLKRPVNVPFDIFTTEVKF [E20T]: the protein stability index stood at 1.53. Then YQSGGRLKRPVNVPFDIFTNEVKF [E20N], with 2.12. YQSGGRLKRPVNVPFDIFTREVKF [E20R]: the protein stability index was 1.31. Then YQSGGRLKRPVAVPFDIFTEEVKF [N12A], with 1.65. The figure for YQSGGRLKRPVTVPFDIFTEEVKF [N12T] is 2.07; for YQSGGRLKRPVKVPFDIFTEEVKF [N12K] it is 3.14; for YQSGGRLKRPVYVPFDIFTEEVKF [N12Y] it is 1.55.

For the variant YQSGGRLKRPVEVPFDIFTEEVKF [N12E], the protein stability index turned out to be 1.22.

As for YQSGGRLKRMVNVPFDIFTEEVKF [P10M], the protein stability index was found to be 1.4. On to YQSGGRLKRRVNVPFDIFTEEVKF [P10R], for which the protein stability index is 1.01. For YQSGGRLKRNVNVPFDIFTEEVKF [P10N], the protein stability index was 1.94.

For the variant YQSGGRLKRGVNVPFDIFTEEVKF [P10G], the protein stability index was determined as 1.53.

In the case of YQSGGRLKRFVNVPFDIFTEEVKF [P10F], the protein stability index stood at 2.76. Take YQSGGRLKRAVNVPFDIFTEEVKF [P10A]: the protein stability index stood at 2.16. Turning to YQSGGRLKRPVNVPFDIFTEEVKE [F24E], the protein stability index amounted to 2.32.

On to YQSGGRLKRPVNVPFDIFTEEVKG [F24G], for which the protein stability index came out at 2.26. As for YQSGGRLKRPVNVPFDIFTEEVKR [F24R], the protein stability index is 2.59.

YQSGGRLKRPVNVPFDIFTEEVKI [F24I]: the protein stability index was 1.71. For the variant YQSGGRLKRPVNVPFDIFTEEVKS [F24S], the protein stability index came to 2.79.

Take YQSGGRLKRPVNVPFDIFTEEVKL [F24L]: the protein stability index stood at 2.05. As for YNSGGRLKRPVNVPFDIFTEEVKF [Q2N], the protein stability index was found to be 2.12. For YTSGGRLKRPVNVPFDIFTEEVKF [Q2T], the protein stability index came out at 1.62.

Turning to YLSGGRLKRPVNVPFDIFTEEVKF [Q2L], the protein stability index was found to be 1.64. The figure for YMSGGRLKRPVNVPFDIFTEEVKF [Q2M] is 2.56. Then YKSGGRLKRPVNVPFDIFTEEVKF [Q2K], with 2.14. Then YESGGRLKRPVNVPFDIFTEEVKF [Q2E], with 2.73. On to YWSGGRLKRPVNVPFDIFTEEVKF [Q2W], for which the protein stability index was 1.48. The figure for YSSGGRLKRPVNVPFDIFTEEVKF [Q2S] is 2.58; for YDSGGRLKRPVNVPFDIFTEEVKF [Q2D] it is 2.97. The figure for YQSGGCLKRPVNVPFDIFTEEVKF [R6C] is 1.26; for YQSGGPLKRPVNVPFDIFTEEVKF [R6P] it is 1.85; for YQSGGHLKRPVNVPFDIFTEEVKF [R6H] it is 2.14.

Turning to YQSGGQLKRPVNVPFDIFTEEVKF [R6Q], the protein stability index was 2.15.

For the variant YQSGGTLKRPVNVPFDIFTEEVKF [R6T], the protein stability index came out at 2.5.

For YQSGGSLKRPVNVPFDIFTEEVKF [R6S], the protein stability index worked out at 1.45. The figure for YQSGGILKRPVNVPFDIFTEEVKF [R6I] is 1.63. Then YQSGGMLKRPVNVPFDIFTEEVKF [R6M], with 1.47; and YQSGGGLKRPVNVPFDIFTEEVKF [R6G], with 1.71.

YQSGGRLKRPVNVPFDIFQEEVKF [T19Q]: the protein stability index turned out to be 1.42.

YQSGGRLKRPVNVPFDIFGEEVKF [T19G]: the protein stability index was found to be 1.94. For the variant YQSGGRLKRPVNVPFDIFREEVKF [T19R], the protein stability index came to 1.2. Turning to YQSGGRLKRPVNVPFDIFCEEVKF [T19C], the protein stability index was found to be 1.46.

Turning to YQSGGRLKRPVNVPFDIFPEEVKF [T19P], the protein stability index was found to be 1.53. As for YQSGGRLKRPVNVPFDIFFEEVKF [T19F], the protein stability index stood at 2.1.

In the case of YQSGGRLKRPVNMPFDIFTEEVKF [V13M], the protein stability index was determined as 1.61.

On to YQSGGRLKRPVNTPFDIFTEEVKF [V13T], for which the protein stability index stood at 1.51. Take YQSGGRLKRPVNNPFDIFTEEVKF [V13N]: the protein stability index is 1.2. Take YQSGGRLKRPVNQPFDIFTEEVKF [V13Q]: the protein stability index came out at 1.66. The figure for YQSGGRLKRPVNHPFDIFTEEVKF [V13H] is 1.91; for YQSGGRLKRPVNAPFDIFTEEVKF [V13A] it is 1.47. For the variant YQSGGRLKRPVNIPFDIFTEEVKF [V13I], the protein stability index is 1.75. For the variant YQFGGRLKRPVNVPFDIFTEEVKF [S3F], the protein stability index is 1.51.

Turning to YQVGGRLKRPVNVPFDIFTEEVKF [S3V], the protein stability index was 1.75. Turning to YQDGGRLKRPVNVPFDIFTEEVKF [S3D], the protein stability index was determined as 3.3.

Take YQRGGRLKRPVNVPFDIFTEEVKF [S3R]: the protein stability index stood at 1.37. The figure for YQLGGRLKRPVNVPFDIFTEEVKF [S3L] is 2.13.

Consider YQYGGRLKRPVNVPFDIFTEEVKF [S3Y], for which the protein stability index turned out to be 1.59. With YQNGGRLKRPVNVPFDIFTEEVKF [S3N], the protein stability index came out at 1.98.

Turning to YQIGGRLKRPVNVPFDIFTEEVKF [S3I], the protein stability index stood at 1.63. As to YQSGGRLKPPVNVPFDIFTEEVKF [R9P], the protein stability index was 1.72. Consider YQSGGRLKYPVNVPFDIFTEEVKF [R9Y], for which the protein stability index was determined as 2.38. Then YQSGGRLKCPVNVPFDIFTEEVKF [R9C], with 1.63; and YQSGGRLKQPVNVPFDIFTEEVKF [R9Q], with 2.34. Turning to YQSGGRLKIPVNVPFDIFTEEVKF [R9I], the protein stability index was 1.65. The figure for YQSGGRLKFPVNVPFDIFTEEVKF [R9F] is 1.58; for YQSGGRLKDPVNVPFDIFTEEVKF [R9D] it is 1.99; for YQSGGRLKVPVNVPFDIFTEEVKF [R9V] it is 1.69. The figure for YQSGGRLKNPVNVPFDIFTEEVKF [R9N] is 2.07. For the variant YQSGGRLKRPVNVPFDAFTEEVKF [I17A], the protein stability index is 1.64.

With YQSGGRLKRPVNVPFDMFTEEVKF [I17M], the protein stability index was 1.91. Regarding YQSGGRLKRPVNVPFDPFTEEVKF [I17P], the protein stability index came out at 1.85. Then YQSGGRLKRPVNVPFDGFTEEVKF [I17G], with 1.91.
